Where a chain is given by its changes, count along the chain named. In names and notes the source's numbering stands.
Columns and labels:
[1] = molecular target: T1, peptide consisting of the first 20 amino acids of htt, MATLEKLMKAFESLKSFQQQ-biotin (C-terminal biotin); test: titration of yeast surface displayed intrabody with biotinylated peptide, flow cytometry; Example 4 text's estimate from FIG. 24B
T1 construct: Synthesized to contain three glutamines; also called huntingtin peptide; huntingtin peptide antigen
T1 peptide: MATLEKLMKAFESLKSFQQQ
Excerpt: A peptide consisting of the first 20 amino acids of htt was used as the antigen ([…]-biotin (SEQ ID NO:9), synthesized by the MIT biopolymers lab). The antigen was synthesized to contain three glutamines because the beginning of the polyglutamine region would be an ideal target for interfering with the misfolding of htt exon I. Affinity maturation of VL,C22V,C89A relied upon protocols previously described (Colby, D. W. et al., Methods Enzymol 388: 348-358, 2004). Briefly, the VL,C22V,C89A gene was used as the template for the creation of a library of point mutants through error-prone PCR using nucleotide analogues. The resulting PCR products were amplified and transformed into yeast along with digested pCTCON (a yeast surface display vector) to create a library through homologous recombination (Raymond, C. K. et al., Biotechniques 26: 134-138, 140-141, 1999). […] These mutants were then used as the template in the next round of library generation. The entire process, from library generation to isolation of improved mutants, was repeated three times to yield VL12.3. FACS sorting was performed using a Cytomation Moflo FACS machine by the staff of the MIT Flow cytometry core facility. All constructs and clones were sequenced at the MIT biopolymers lab.
Intrabody lacking disulflde bond engineered for high affinity by directed evolution. […]

httex1Q97-GFP, P42858 = test: cell-based or functional assay
[2] = molecular target: T1, peptide consisting of the first 20 …; test: antigen binding curves of yeast surface displayed VL mutants, flow cytometry; figure legend's estimate from FIG. 24B
Experimental: (§1) Both intrabodies are equally capable of partially blocking aggregation when overexpressed at high levels. *** p<0.001. FIG. 24D is a schematic homology model that includes mutations obtained during engineering; model contains residues present before mutagenesis. Mutations observed after mutagenesis and sorting were F371, Y51D, K67R, and A75T.
(§2) Yeast surface display. […] Yeast surface display labeling experiments to measure expression and binding were conducted as previously described (Boder, E. T. et al., Methods Enzymol 328: 430-444, 2000). A peptide consisting of the first 20 amino acids of htt was used as the antigen ([…]-biotin (SEQ ID NO:9), synthesized by the MIT biopolymers lab). The antigen was synthesized to contain three glutamines because the beginning of the polyglutamine region would be an ideal target for interfering with the misfolding of htt exon I. Affinity maturation of VL,C22V,C89A relied upon protocols previously described (Colby, D. W. et al., Methods Enzymol 388: 348-358, 2004). Briefly, the VL,C22V,C89A gene was used as the template for the creation of a library of point mutants through error-prone PCR using nucleotide analogues. […]

[3] = molecular target: T1, peptide consisting of the first 20 …; test: yeast surface display, flow cytometry with huntingtin peptide (method not restated in the sentence)
Experimental: as §1, §2

[4] = molecular target: T1, peptide consisting of the first 20 …; test: titration of yeast surface displayed intrabody with biotinylated peptide, flow cytometry
Experimental: as §1, §2

[5] = molecular target: T1, peptide consisting of the first 20 …; test: yeast surface display, flow cytometry with huntingtin peptide
Experimental: as §1, §2

[6] = molecular target: T1, peptide consisting of the first 20 …; test: yeast surface display titration
Experimental: as §1, §2

[7] = molecular target: T1, peptide consisting of the first 20 …; test: yeast surface display, flow cytometry
Experimental: as §1, §2

B1: VL12.3 (other)
VL: MGSQPVLTQSPSVSAAPRQRVTISVSGSNSNIGSNTVNWIQQLPGRAPELLMYDDDLLAPGVSDRFSGSRSGTSASLTISGLQSEDEADYYAATWDDSLNGWVFGGGTKVTVLSGHHHHHH
notes: It carries N-terminal MGS and C-terminal GHHHHHH, which is the his6 intrabody form; also called engineered intrabody VL12.3; Ad-VL12.3 (adenovirus carrying the gene)
With B1 the Kd [1] was ~5 nM, the formation of aggregates in ST14A cells, 1:1 intrabody:htt plasmid ratio (httex1Q97-GFP, P42858) was 80 % reduction and the formation of aggregates in ST14A cells, higher intrabody:htt plasmid ratios (httex1Q97-GFP, P42858) was > 90 % reduction. For the same binder, the Kd [2] was ~3 nM.

B2: VL (anti-huntingtin single-domain antibody, variable light chain only), yeast-surface displayed (other)
VL: QPVLTQSPSVSAAPRQRVTISCSGSNSNIGSNTVNWFQQLPGRAPELLMYYDDLLAPGVSDRFSGSKSGTSASLAISGLQSEDEADYYCATWDDSLNGWVFGGGTKVTVLS
notes: Single human VL domain with its disulfide bond; also called SDAb; SDIb
B2 was tested, and the Kd [3] was 30 to 50 nM and the Kd [4] was ~30 nM.

B3: VL,C22V,C89A (disulfide-free VL), yeast-surface displayed (other)
VL: B2 VL with C22V, C89A
notes: also called disulfide-free antibody; disulfide knock-out
In the case of B3, the “fold decrease in affinity against the SDAb with its disulfide bond” value [5] is reported as ~100 fold, the “fold difference in affinity against VL” value [6] is reported as ~1000 fold and the Kd [4] is reported as > 10000 nM.

B4: engineered (affinity matured) disulfide-free SDIb of Examples 1 and 3 (other)
VL: SRPVLTQSPSVSAAPRQRVTISVSGSNSNIGSNTVNWIQQLPGRAPELLMYDDDLLAPGVSDRFSGSRSGTSASLTISGLQSEDEADYYAATWDDSLNDWVFGGGTKVTVLS
notes: expressed in yeast cytoplasm for the aggregation assay (construct not described); also called engineered SDIb
Work on B4 yielded a Kd [7] of ~10 nM.

Reference: patent US20050226863A1 (MIT, published 2005)
